Assay results taken from article PMC3804487, “DNA Aptamers Selectively Target Leishmania infantum H2A Protein”.

Molecular target: T1, rLiH2A (histone H2A) (Leishmania infantum, UniProt Q9BJC8 1-132)
T1 sequence: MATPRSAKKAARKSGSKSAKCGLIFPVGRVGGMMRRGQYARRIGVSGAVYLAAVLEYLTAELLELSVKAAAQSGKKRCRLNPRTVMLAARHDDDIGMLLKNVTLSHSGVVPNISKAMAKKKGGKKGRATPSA
Assay: ELONA
Conditions: protein: recombinant; tags: His (Ni-NTA purified)

B1: AptLiH2A#1 (structured_DNA)
DNA: GCGGATGAAGACTGGTGTTGTGCAATGATTTTTCCGGTTGACCAGGTAGGAATTGTAGGCCCTAAATACGAGCAAC
- Kd: 0.96 ± 0.17 nM

B2: AptLiH2A#2 (structured_DNA)
DNA: GCGGATGAAGACTGGTGTGGAGTCTACCCTGTTTTCTAGTCTGCCATCCCTATCCCATGCCCTAAATACGAGCAAC
- Kd: 1.16 ± 0.28 nM
